In test [1] the target is T1, fusion protein in which the extracellular domain of human GITR is fused with the domain of mouse IgG1-Fc (human).
T1 construct: The GITR part is said to start at residue 1 of Q9Y5U5, so the entry may hold a signal peptide; Made in HEK293 cells, Protein A purified; also called hGITR-muFc; human GITR protein
T1 chain: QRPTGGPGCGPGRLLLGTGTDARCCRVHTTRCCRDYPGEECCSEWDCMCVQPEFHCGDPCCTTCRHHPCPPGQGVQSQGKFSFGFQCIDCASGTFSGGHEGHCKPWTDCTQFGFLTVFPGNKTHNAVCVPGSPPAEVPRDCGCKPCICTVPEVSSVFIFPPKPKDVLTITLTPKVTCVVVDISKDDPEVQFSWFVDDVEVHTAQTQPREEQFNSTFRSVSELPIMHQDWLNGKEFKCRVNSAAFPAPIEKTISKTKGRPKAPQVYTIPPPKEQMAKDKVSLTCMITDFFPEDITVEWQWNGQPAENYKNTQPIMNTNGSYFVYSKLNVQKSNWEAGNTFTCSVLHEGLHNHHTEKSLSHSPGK
As to the kind of experiment: ELISA, hGITR-muFc coated at 5 ug/ml, anti-human IgG-HRP (FIG. 6). How it is done: (§1) An ELISA plate was coated with 5 μg/ml of hGITR-muFc at 100 μl/well, and incubated overnight at 4° C. The plate was washed with 10 mM of PBS/Tween (0.05%) at pH 7.4 for 3 times, blocked with PBS containing 3% BSA and incubated at 37° C. for 2 h; then washed for 3 times, added with the above 9 isolated antigen-binding proteins of the present application in 3-fold dilutions starting from 10 μg/ml, incubated at 37° C. for 2 h, washed for 3 times, added with anti-human IgG-HRP enzyme-labeled secondary antibody, incubated at 37° C. for 1 h, cleaned, then developed with TMB substrate, and subjected to spectrophotometric analysis at OD450 nm. The results are shown in FIG. 5 and FIG. 6, in which the EC₅₀ values of various proteins in FIG. 5 and FIG. 6 are shown in Table 3 and Table 4, respectively. It can be seen from FIG. 5 and FIG. 6 as well as Table 3 and Table 4 that, the humanized antibodies (i.e., the isolated antigen-binding proteins of the present application 3E2 1-2, 3E2 1-3, 3E2 1-4, 3E2 2-2, 3E2 2-3, 3E2 2-4, 3E2 3-2, 3E2 3-3 and 3E2 3-4) have a binding affinity to the antigen that is equivalent to that of the parent antibody (i.e., the isolated antigen-binding protein C3E2 of the present application).

For test [2], the target named is T1, fusion protein in which the …. Nature of the test: BLI (Octet K2), antibody on AHC biosensor, hGITR-muFc in solution from 100 nM. As to the method:
Using the BLI method, the above 9 isolated antigen-binding proteins of the present application and C3E2 were immobilized on the AHC biosensor at a concentration of 10 µg/ml. At the same time, the hGITR-muFc prepared in Example 1 was diluted 2-fold from 100 nM in 5 gradients. The reaction plate was placed on Octet K2 instrument, meanwhile the program was set as Baseline 60 s, Association 20 s, Disscociation 300 s, Baseline 2 30 s, Loading 40 s, custom 5 s. At the end of the program, curve fitting and parameter conversion were conducted.

The target is the same in test [3]. As to the kind of experiment: ELISA, hGITR-muFc coated at 5 ug/ml, anti-human IgG-HRP (FIG. 5). As to the method: as §1
On the technique in general: An ELISA detects its analyte on a solid surface through an enzyme-linked reagent.

Bounds are passed on as bounds.

Ten molecules from patent US20220356259A1 (SHIHUDA PHARMACEUTICAL GROUP JILIN, published 2022) can be followed below.

B1: isolated antigen-binding protein 3E2 2-3 (antibody, human IgG1, kappa)
heavy: not shown
light: DIVMTQSPLSLPVTLGQPASISCRSSQTIVHSNGNTYLEWYLQKPGQSPKLLIYKVSNRFSGVPDRFSGSGSGTDFTLKISRVEAEDVGVYYCFQGSHVPWTFGGGTKLEIKRTVAAPSVFIFPPSDEQLKSGTASVVCLLNNFYPREAKVQWKVDNALQSGNSQESVTEQDSKDSTYSLSSTLTLSKADYEKHKVYACEVTHQGLSSPVTKSFNRGEC
notes: also called VHV2/VLV3
For the molecule B1, the EC50 (usually the concentration at which the effect is half-maximal) in test [1] worked out at 4.71 ng/mL. In test [2], the dissociation constant (Kd) (usually the concentration at which binding is half-saturated) was below 1 pM; the koff – broadly, a measure of how fast the partners let go of each other – is below 1e-07 s⁻¹; the kon – broadly, a measure of how fast the partners come together – was 2.46e+06 M⁻¹ s⁻¹.

B2: isolated antigen-binding protein 3E2 2-2 (antibody, human IgG1, kappa)
heavy: not shown
light: DIVMTQSPLSLPVTLGQPASISCRSSQTIVHSNGNTYLEWYLQRPGQSPKLLIYKVSNRFSGVPDRFSGSGSGTDFTLKISRVEAEDVGVYYCFQGSHVPWTFGGGTKVEIKRTVAAPSVFIFPPSDEQLKSGTASVVCLLNNFYPREAKVQWKVDNALQSGNSQESVTEQDSKDSTYSLSSTLTLSKADYEKHKVYACEVTHQGLSSPVTKSFNRGEC
notes: also called VHV2/VLV2
In the case of B2, in test [2], binding was characterised by a dissociation constant (Kd) of 12.5 pM, the koff was 3.01e-05 s⁻¹ and the kon stood at 2.4e+06 M⁻¹ s⁻¹. In test [3], a half-maximal response (EC50) required 5.64 ng/mL.

B3: isolated antigen-binding protein 3E2 2-4 (antibody, human IgG1, kappa)
heavy: not shown
light: DIVMTQSPLSLPVTLGDQASISCRSSQTIVHSNGNTYLEWYLQKPGQSPKLLIYKVSNRFSGVPDRFSGSGSGTDFTLKISRVEAEDVGVYYCFQGSHVPWTFGGGTKLEIKRTVAAPSVFIFPPSDEQLKSGTASVVCLLNNFYPREAKVQWKVDNALQSGNSQESVTEQDSKDSTYSLSSTLTLSKADYEKHKVYACEVTHQGLSSPVTKSFNRGEC
notes: also called VHV2/VLV4
B3 displayed an EC50 in test [1] of 4.8 ng/mL. In test [2], this molecule came in with a Kd below 1 pM, an off-rate (koff) below 1e-07 s⁻¹ and a kon of 2.41e+06 M⁻¹ s⁻¹.

B4: isolated antigen-binding protein 3E2 1-3 (antibody, human IgG1, kappa)
heavy: not shown
light: DIVMTQSPLSLPVTLGQPASISCRSSQTIVHSNGNTYLEWYLQKPGQSPKLLIYKVSNRFSGVPDRFSGSGSGTDFTLKISRVEAEDVGVYYCFQGSHVPWTFGGGTKLEIKRTVAAPSVFIFPPSDEQLKSGTASVVCLLNNFYPREAKVQWKVDNALQSGNSQESVTEQDSKDSTYSLSSTLTLSKADYEKHKVYACEVTHQGLSSPVTKSFNRGEC
notes: also called VHV1/VLV3
As to B4, in test [2], the Kd was below 1 pM, the koff is below 1e-07 s⁻¹ and the kon was found to be 2.32e+06 M⁻¹ s⁻¹. Besides, the EC50 in test [3] worked out at 5.83 ng/mL.

B5: isolated antigen-binding protein 3E2 3-2 (antibody, human IgG1, kappa)
heavy: not shown
light: DIVMTQSPLSLPVTLGQPASISCRSSQTIVHSNGNTYLEWYLQRPGQSPKLLIYKVSNRFSGVPDRFSGSGSGTDFTLKISRVEAEDVGVYYCFQGSHVPWTFGGGTKVEIKRTVAAPSVFIFPPSDEQLKSGTASVVCLLNNFYPREAKVQWKVDNALQSGNSQESVTEQDSKDSTYSLSSTLTLSKADYEKHKVYACEVTHQGLSSPVTKSFNRGEC
notes: also called VHV3/VLV2
On to B5, for which the EC50 in test [1] came to 5.28 ng/mL. Further, in test [2], the Kd is below 1 pM, the koff is below 1e-07 s⁻¹ and the kon was found to be 2.52e+06 M⁻¹ s⁻¹.

B6: isolated antigen-binding protein 3E2 1-2 (antibody, human IgG1, kappa, V domains shown)
VH: QVTLQESGPTLVKPTQTLTLTCTFSGFSLSTFGMGVGWIRQPPGKGLEWLVLILWNDIKYYNPALKSLLTVTKDTSKNQVVLTITNMDPVDTATYYCARVDGYYGYFDVWGQGTMVTVSS
VL: DIVMTQSPLSLPVTLGQPASISCRSSQTIVHSNGNTYLEWYLQRPGQSPKLLIYKVSNRFSGVPDRFSGSGSGTDFTLKISRVEAEDVGVYYCFQGSHVPWTFGGGTKVEIKR
notes: also called VHV1/VLV2
Take B6: in test [2], the Kd was below 1 pM, the koff was below 1e-07 s⁻¹ and the kon was found to be 2.49e+06 M⁻¹ s⁻¹. For the same molecule, it took 5.9 ng/mL to reach a half-maximal effect in test [3] (EC50).

B7: isolated antigen-binding protein 3E2 3-4 (antibody, human IgG1, kappa)
heavy: not shown
light: DIVMTQSPLSLPVTLGDQASISCRSSQTIVHSNGNTYLEWYLQKPGQSPKLLIYKVSNRFSGVPDRFSGSGSGTDFTLKISRVEAEDVGVYYCFQGSHVPWTFGGGTKLEIKRTVAAPSVFIFPPSDEQLKSGTASVVCLLNNFYPREAKVQWKVDNALQSGNSQESVTEQDSKDSTYSLSSTLTLSKADYEKHKVYACEVTHQGLSSPVTKSFNRGEC
notes: also called VHV3/VLV4
B7: the midpoint of the response in test [1], the EC50, lay at 6.43 ng/mL. For the same molecule, in test [2], the Kd was found to be 4.72 pM, the koff stood at 1.23e-05 s⁻¹ and the on-rate constant (kon) stood at 2.6e+06 M⁻¹ s⁻¹.

B8: isolated antigen-binding protein 3E2 1-4 (antibody, human IgG1, kappa)
heavy: not shown
light: DIVMTQSPLSLPVTLGDQASISCRSSQTIVHSNGNTYLEWYLQKPGQSPKLLIYKVSNRFSGVPDRFSGSGSGTDFTLKISRVEAEDVGVYYCFQGSHVPWTFGGGTKLEIKRTVAAPSVFIFPPSDEQLKSGTASVVCLLNNFYPREAKVQWKVDNALQSGNSQESVTEQDSKDSTYSLSSTLTLSKADYEKHKVYACEVTHQGLSSPVTKSFNRGEC
notes: also called VHV1/VLV4
In test [2], B8 gave a Kd below 1 pM, a koff below 1e-07 s⁻¹ and a kon of 2.55e+06 M⁻¹ s⁻¹. Moreover, the response in test [3] was half-maximal at 4.52 ng/mL (EC50).

B9: isolated antigen-binding protein 3E2 3-3 (antibody, human IgG1, kappa)
heavy: not shown
light: DIVMTQSPLSLPVTLGQPASISCRSSQTIVHSNGNTYLEWYLQKPGQSPKLLIYKVSNRFSGVPDRFSGSGSGTDFTLKISRVEAEDVGVYYCFQGSHVPWTFGGGTKLEIKRTVAAPSVFIFPPSDEQLKSGTASVVCLLNNFYPREAKVQWKVDNALQSGNSQESVTEQDSKDSTYSLSSTLTLSKADYEKHKVYACEVTHQGLSSPVTKSFNRGEC
notes: also called VHV3/VLV3
Turning to B9, the response in test [1] was half-maximal at 6.04 ng/mL (EC50). In test [2], this molecule yielded a Kd below 1 pM, a koff below 1e-07 s⁻¹ and a kon of 2.49e+06 M⁻¹ s⁻¹.

B10: isolated antigen-binding protein C3E2 (antibody, human IgG1, kappa, V domains shown)
VH: QVQLQESGPGILQPSQTLSLTCSFSGFSLSTFGMGVGWIRQPSGKGLEWLVLILWNDIKYYNPALKSLLTVSKDTSNNQVFLKIASVDTADTATYYCARVDGYYGYFDVWGTGTTVTVSS
VL: DIVMTQSPLSLPVSLGDQASISCRSSQTIVHSNGNTYLEWYLQKPGQSPKLLIYKVSNRFSGVPDRFSGSGSGTDFTLKISRVEAEDLGVYYCFQGSHVPWTFGGGTKLEIKR
notes: made in HEK293 cells; also called parent antibody; chimeric antibody
As for B10, the response in test [1] was half-maximal at 6.72 ng/mL (EC50). In test [2], the Kd came to 6.01 pM, the koff was 1.83e-05 s⁻¹ and the kon came to 3.05e+06 M⁻¹ s⁻¹. For the same molecule, in test [3], the EC50 is 6.21 ng/mL.
